The data set deals with the molecule itself. The data set is described as follows: crystal structure.

B1: K2P2.1_(cryst), engineered mouse K2P2.1 (TREK-1) (domain or fragment, UniProt P97438-2 21-322, looked up)
chain: SFSSKPTVLASRVESDSAINVMKWKTVSTIFLVVVLYLIIGATVFKALEQPQEISQRTTIVIQREKFLRAHPCVSDQELDELIQQIVAAINAGIIPLGASSNQVSHWDLGSSFFFAGTVITTIGFGNISPRTEGGKIFCIIYALLGIPLFGFLLAGVGDQLGTIFGKGIAKVEDTFIKWNVSQTKIRIISTIIFILFGCVLFVALPAVIFKHIEGWSALDAIYFVVITLTTIGFGDYVAGGSDIEYLDFYKPVVWFWILVGLAYFAAVLSMIGDWLRVIAKKTKEAVGEFRAHAAEWTANVT
Consider B1, for which the binding result was “binds”.

(Values after doi:10.1101/2020.03.20.000893 (bioRxiv, 2020).)
